In the RNAGym collection of RNA variant scans (doi:10.7554/elife.80360):

B1: Hammerhead Ribozyme (parent)
chain: ACCGGAUGUGCUUUCCGGUCUGAUGAGUCCGUGAGGACGAAACAG

Variants of: B1
Test: self-cleavage, relative activity (ratio to wild type); higher = more cleavage; co-transcriptional
For A26U C30G, the self-cleavage was 0.423. A23G C43G showed a self-cleavage of 0.35. With U24G A44G the self-cleavage was 1.49. In the case of G18U C20A, the self-cleavage is reported as 0.326. Variant C3A A40C has a self-cleavage of 0.324. For G25A G35U, the self-cleavage was 0.35. For C29U G45A, the self-cleavage was 0.454. In the case of G8U U13G, the self-cleavage is reported as 1.05. Work on C20A G45A yielded a self-cleavage of 0.396. A23U A26G gave a self-cleavage of 0.304. For C15U G25A, the self-cleavage was 0.366. Work on C15A G36C yielded a self-cleavage of 0.379. With C3U A37C the self-cleavage was 0.566. For C15A G25C, the self-cleavage was 0.381. In the case of G5C G25A, the self-cleavage is reported as 0.305. In the case of C11U G45A, the self-cleavage is reported as 0.515. In the case of G17U C20G, the self-cleavage is reported as 0.359. For U19C U32C, the self-cleavage was 0.565. U9G A34G gave a self-cleavage of 1.04. A1U A37G showed a self-cleavage of 0.734. In the case of U7A C16G, the self-cleavage is reported as 0.851. With C16U A40U the self-cleavage was 0.301. G5A A6G gave a self-cleavage of 0.82. Work on G5U A23C yielded a self-cleavage of 0.339. With A1G U21G the self-cleavage was 0.812. Variant G4C G8C has a self-cleavage of 0.592. With C30G A41C the self-cleavage was 0.368. In the case of G4A A42G, the self-cleavage is reported as 0.341. With C2G U14C the self-cleavage was 0.317. U14G A23U showed a self-cleavage of 0.256. A26C A37C showed a self-cleavage of 0.518. With A41C A42C the self-cleavage was 0.375. Work on C16U A26U yielded a self-cleavage of 0.816. Variant C3U G36A has a self-cleavage of 0.617. Work on G10U yielded a self-cleavage of 1.07. With A1G G22U the self-cleavage was 0.408. Variant U21A A44U has a self-cleavage of 0.283. Work on G10A G22U yielded a self-cleavage of 0.319. A1C A44C showed a self-cleavage of 0.376. Variant U14C U21C has a self-cleavage of 0.504. In the case of G8C U13C, the self-cleavage is reported as 1.2. With A23C U28C the self-cleavage was 0.352. For A40C C43A, the self-cleavage was 0.299. In the case of U14G A26G, the self-cleavage is reported as 0.223. G22C G39C showed a self-cleavage of 0.375. With A6G G35A the self-cleavage was 0.302. Work on C29G G33C yielded a self-cleavage of 0.654. Variant G18C G35A has a self-cleavage of 0.537. Variant G5C U21C has a self-cleavage of 0.507. In the case of U9C G27C, the self-cleavage is reported as 0.774. With A1U C30U the self-cleavage was 0.897. Variant C30G has a self-cleavage of 0.867. With G27A A40G the self-cleavage was 0.341. In the case of A1U G36U, the self-cleavage is reported as 0.438. In the case of G18U G31A, the self-cleavage is reported as 0.905. Work on U21G U28A yielded a self-cleavage of 0.4. G10C U32A showed a self-cleavage of 1.09. Variant U12A A41U has a self-cleavage of 0.388. U19A U28G showed a self-cleavage of 0.374. For G39C G45C, the self-cleavage was 0.368. With A23C G25U the self-cleavage was 0.298. Variant U13G C20U has a self-cleavage of 0.435. Work on C2G G31C yielded a self-cleavage of 0.376. With U14G A44U the self-cleavage was 0.609. Work on G5A G10A yielded a self-cleavage of 1.54. Variant G27U A41U has a self-cleavage of 0.347. Work on A1C C16G yielded a self-cleavage of 0.351. For U9A U32A, the self-cleavage was 0.964. G5A G31C showed a self-cleavage of 1.32. U13A A41U gave a self-cleavage of 0.355. With G22U A40G the self-cleavage was 0.288. For G27C A44U, the self-cleavage was 0.445. G10A G18A showed a self-cleavage of 0.943. For A6C U28A, the self-cleavage was 0.191. Variant C16A A42C has a self-cleavage of 0.399. In the case of C20U G25U, the self-cleavage is reported as 0.328. Variant U13G C29A has a self-cleavage of 0.595. C11G G31U gave a self-cleavage of 1.34. Work on C2U U9C yielded a self-cleavage of 0.983. For A6C U19A, the self-cleavage was 0.265. Variant C2G G22A has a self-cleavage of 0.292. Variant G25U A34C has a self-cleavage of 0.317. G5U A6G gave a self-cleavage of 0.644. G33U G35C gave a self-cleavage of 0.964. Work on C2U A42G yielded a self-cleavage of 0.467. With G17C U19G the self-cleavage was 0.337. In the case of G17C G35A, the self-cleavage is reported as 0.535. U21A A42U showed a self-cleavage of 0.402. With G5U A44C the self-cleavage was 0.515. For G33A G45C, the self-cleavage was 0.873. In the case of C16U G35A, the self-cleavage is reported as 0.911. Work on U28A A41G yielded a self-cleavage of 0.398. In the case of C16A U28C, the self-cleavage is reported as 0.722. In the case of U7C A42G, the self-cleavage is reported as 0.306. U9A C20G gave a self-cleavage of 0.422. C3A G25A showed a self-cleavage of 0.298. Work on C2A A37G yielded a self-cleavage of 0.427. Work on C20G U21C yielded a self-cleavage of 0.305. Work on U14A C20G yielded a self-cleavage of 0.346. In the case of A34C A41G, the self-cleavage is reported as 0.367. C15U C38A gave a self-cleavage of 0.677. With G27C G33A the self-cleavage was 0.864. Variant G25A G36C has a self-cleavage of 0.302. Work on G25A G36A yielded a self-cleavage of 0.32. For G25A U32G, the self-cleavage was 0.419. Variant U19C G39C has a self-cleavage of 0.251. Work on G22C A40C yielded a self-cleavage of 0.339. G5A U7A gave a self-cleavage of 0.95. C20U A42G showed a self-cleavage of 0.258. C3G G18U showed a self-cleavage of 0.535. For U7G C11U, the self-cleavage was 1.12. C15A G35C showed a self-cleavage of 0.509. Variant U28C C29U has a self-cleavage of 0.688. Work on A1G U7C yielded a self-cleavage of 1.39. Variant G18A G27A has a self-cleavage of 0.519. Variant G25A A34G has a self-cleavage of 0.3. For C3G G36U, the self-cleavage was 0.278. Variant C3A C20U has a self-cleavage of 0.319. For U24G A41C, the self-cleavage was 0.322. For G33A G35U, the self-cleavage was 0.866. Variant U28A A44C has a self-cleavage of 0.38. With U28A A44G the self-cleavage was 0.596. A6G A40C showed a self-cleavage of 0.355. For G4U G10C, the self-cleavage was 0.469. C3G A41U gave a self-cleavage of 0.3. With U12A G17C the self-cleavage was 0.423. Work on C29G A44U yielded a self-cleavage of 0.398. For G27U U28A, the self-cleavage was 0.552. G25A G27U showed a self-cleavage of 0.314. Variant C2G U12C has a self-cleavage of 0.342. Work on U28A C38A yielded a self-cleavage of 0.726. Variant G8C A42U has a self-cleavage of 0.266. U21A G27A gave a self-cleavage of 0.363. Work on C16U A42C yielded a self-cleavage of 0.363. G5C G31U showed a self-cleavage of 1.02. Variant A1U G31U has a self-cleavage of 0.748. With G27U A42C the self-cleavage was 0.294. For C15G G45A, the self-cleavage was 0.446. Work on U13C G31U yielded a self-cleavage of 1.22. Work on G18U G27C yielded a self-cleavage of 0.427. Variant C2A A6C has a self-cleavage of 0.306. For U21G C30U, the self-cleavage was 0.837. U19G C43G showed a self-cleavage of 0.321. C2U G25A showed a self-cleavage of 0.386. For C3A G5C, the self-cleavage was 0.319. C16A A40C gave a self-cleavage of 0.402. With C29A A40G the self-cleavage was 0.294. G5A U14A gave a self-cleavage of 1.58. G22C G35U showed a self-cleavage of 0.303. Variant U13A G31U has a self-cleavage of 1.39. A26U U28A showed a self-cleavage of 0.464. With U14C U19C the self-cleavage was 0.398. With A6U U12A the self-cleavage was 0.538. Variant G31U G33C has a self-cleavage of 1.08. G10A G35U showed a self-cleavage of 0.925. For A1U C38U, the self-cleavage was 0.583. A1U C43A showed a self-cleavage of 0.347. Work on U14A G27C yielded a self-cleavage of 0.661. In the case of G10A U28C, the self-cleavage is reported as 1.37. For U19A G39U, the self-cleavage was 0.29. For C20U U28A, the self-cleavage was 0.621. G5C C29G showed a self-cleavage of 0.344. With U7A U12G the self-cleavage was 1.33. Work on G17A G18U yielded a self-cleavage of 0.318. A1C G18C gave a self-cleavage of 0.399. With C15A C20A the self-cleavage was 0.316. With U21G A23C the self-cleavage was 0.36.
